This passage reports activity results from patent publication US20140223606, “COMPOSITIONS AND METHODS COMPRISING SEQUENCES HAVING MEGANUCLEASE ACTIVITY” (PIONEER HI BRED INTERNATIONAL INC, published 2014).

Common to all, as to details: tags: NLS, 6xHis
In one data set the target is T1, MHP14(14) (artificial).
T1 chain: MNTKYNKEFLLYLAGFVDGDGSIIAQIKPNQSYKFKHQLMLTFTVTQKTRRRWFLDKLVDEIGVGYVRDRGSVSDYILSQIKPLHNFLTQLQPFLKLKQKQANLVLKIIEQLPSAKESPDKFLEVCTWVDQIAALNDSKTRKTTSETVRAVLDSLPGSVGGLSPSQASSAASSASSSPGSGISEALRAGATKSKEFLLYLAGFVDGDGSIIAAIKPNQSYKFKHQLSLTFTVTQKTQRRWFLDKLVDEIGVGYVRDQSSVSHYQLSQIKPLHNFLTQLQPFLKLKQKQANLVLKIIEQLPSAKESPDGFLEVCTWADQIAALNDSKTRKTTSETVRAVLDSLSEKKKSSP
Put plainly: cell_activity; yeast 37 C; 28 C: 1. The protocol:
A 3 mL culture of selective media (MP Biomedical) was inoculated with a single colony of the yeast screening strain and grown at 30° C. overnight. On the following day, a 50 ml YPD culture (MP Biomedical) was started with 2 ml of the overnight culture and grown at 30° C. overnight. On the following day, the cells were harvested by centrifugation at 4000 rpm. The cells were resuspended in 100 ml ice cold water and centrifuged again. The cells were then washed in 1.2 M sorbitol, followed by treatment with 2 ml of 10 mM Tris pH 8.0, 1 mM EDTA, 100 mM Lithium acetate, 10 mM DTT, 0.6M sorbitol for 30 minutes at 30° C. with shaking. The cells were recovered by centrifugation, washed in 40 ml 1.2M sorbitol and finally resuspended in 250 microliters of 1.2M sorbitol. 50 microliter aliquots were transferred to test tubes on ice. Up to 5 microliters of DNA (100-500 nanograms) were added. The suspension was transferred to a 0.2 cm electroporation cuvette, on ice. Electroporation was performed with a pulse charge at 1.5 kV, 200 ohms, 25 microF (pulse time of 5 milliseconds). 1 mL YPD media (MP Biomedical) was added and the cells were allowed to recover at 30° C. for 1-2 hr. The cells were centrifuged, resuspended in 100 uL 1M sorbitol and plated on selective media lacking leucine and containing 2% galactose. The resulting yeast colonies were incubated at various temperatures ranging from 22 to 37 degrees Celsius for 7-10 days. I-CreI and meganucleases derived from it have maximal activity at or above 37 degrees Celsius. Screening was performed at a range of temperatures from 22 to 37 degrees in order to observe increases in activity at lower temperatures which are relevant to certain biological systems (eg. plant cells, plant cell cultures, etc). At that time the red/white sectoring phenotype, indicative of meganuclease activity was observed. Colonies with increased white sectoring over the parental meganuclease (indicating colonies expressing a meganuclease with increased meganuclease activity), also referred to as “hits” and sometimes completely white, were isolated for further analysis. […]

Another data set addresses T2, ZM6.22v2(J7) (artificial).
T2 chain: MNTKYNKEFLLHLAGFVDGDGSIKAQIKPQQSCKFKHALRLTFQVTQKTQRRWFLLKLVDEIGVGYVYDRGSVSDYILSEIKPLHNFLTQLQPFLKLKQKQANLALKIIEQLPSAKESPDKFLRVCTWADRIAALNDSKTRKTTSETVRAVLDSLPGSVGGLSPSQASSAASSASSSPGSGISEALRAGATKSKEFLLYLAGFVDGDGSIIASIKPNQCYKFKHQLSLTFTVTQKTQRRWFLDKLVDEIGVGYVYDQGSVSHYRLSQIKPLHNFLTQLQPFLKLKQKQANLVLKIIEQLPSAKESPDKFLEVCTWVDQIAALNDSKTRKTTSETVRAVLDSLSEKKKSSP
Nature of the data set: cell_activity; yeast 37 C; 30 C: 0.5. The protocol:
(§1) A 3 mL culture of selective media (MP Biomedical) was inoculated with a single colony of the yeast screening strain and grown at 30° C. overnight. On the following day, a 50 ml YPD culture (MP Biomedical) was started with 2 ml of the overnight culture and grown at 30° C. overnight. On the following day, the cells were harvested by centrifugation at 4000 rpm. The cells were resuspended in 100 ml ice cold water and centrifuged again. The cells were then washed in 1.2 M sorbitol, followed by treatment with 2 ml of 10 mM Tris pH 8.0, 1 mM EDTA, 100 mM Lithium acetate, 10 mM DTT, 0.6M sorbitol for 30 minutes at 30° C. with shaking. The cells were recovered by centrifugation, washed in 40 ml 1.2M sorbitol and finally resuspended in 250 microliters of 1.2M sorbitol. 50 microliter aliquots were transferred to test tubes on ice. Up to 5 microliters of DNA (100-500 nanograms) were added. The suspension was transferred to a 0.2 cm electroporation cuvette, on ice. Electroporation was performed with a pulse charge at 1.5 kV, 200 ohms, 25 microF (pulse time of 5 milliseconds). 1 mL YPD media (MP Biomedical) was added and the cells were allowed to recover at 30° C. for 1-2 hr. The cells were centrifuged, resuspended in 100 uL 1M sorbitol and plated on selective media lacking leucine and containing 2% galactose. The resulting yeast colonies were incubated at various temperatures ranging from 22 to 37 degrees Celsius for 7-10 days. I-CreI and meganucleases derived from it have maximal activity at or above 37 degrees Celsius. Screening was performed at a range of temperatures from 22 to 37 degrees in order to observe increases in activity at lower temperatures which are relevant to certain biological systems (eg. plant cells, plant cell cultures, etc). At that time the red/white sectoring phenotype, indicative of meganuclease activity was observed. Colonies with increased white sectoring over the parental meganuclease (indicating colonies expressing a meganuclease with increased meganuclease activity), also referred to as “hits” and sometimes completely white, were isolated for further analysis.
(§2) A total of 13 ZM6.22v2 variants with increased activity were confirmed in the yeast system (as described in Example 6). Increased activity was observed across a range of temperatures: 28 degrees Celsius, 30 degrees Celsius and 37 degrees Celsius, as shown in Table 16.

A further data set deals with T3, ZM6.22v2(I8) (artificial).
T3 chain: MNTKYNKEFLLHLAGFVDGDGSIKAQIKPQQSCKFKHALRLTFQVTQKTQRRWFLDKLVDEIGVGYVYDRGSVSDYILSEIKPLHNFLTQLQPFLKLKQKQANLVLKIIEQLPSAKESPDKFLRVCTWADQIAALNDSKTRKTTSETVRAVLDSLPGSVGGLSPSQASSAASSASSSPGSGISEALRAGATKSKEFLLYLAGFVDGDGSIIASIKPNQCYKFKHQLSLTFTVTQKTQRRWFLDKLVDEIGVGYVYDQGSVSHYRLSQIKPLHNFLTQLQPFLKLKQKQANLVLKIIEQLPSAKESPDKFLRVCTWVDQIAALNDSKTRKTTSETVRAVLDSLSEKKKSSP
Nature of the data set: cell_activity; yeast 37 C; 30 C: 0.5. The protocol:
as §1, §2

In a further data set the target is T4, ZM6.22v2(J5) (artificial).
T4 chain: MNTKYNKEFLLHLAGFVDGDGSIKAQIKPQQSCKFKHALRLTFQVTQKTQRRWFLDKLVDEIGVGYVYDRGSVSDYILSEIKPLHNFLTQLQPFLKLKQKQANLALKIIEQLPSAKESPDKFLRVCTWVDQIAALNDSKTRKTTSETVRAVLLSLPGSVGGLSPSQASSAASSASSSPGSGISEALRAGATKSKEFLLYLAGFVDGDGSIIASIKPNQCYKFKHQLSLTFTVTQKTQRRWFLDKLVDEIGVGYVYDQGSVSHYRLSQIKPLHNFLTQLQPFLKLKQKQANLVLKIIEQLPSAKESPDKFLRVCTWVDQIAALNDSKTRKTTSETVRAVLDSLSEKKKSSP
Nature of the data set: cell_activity; yeast 37 C; 30 C: 0.5. The protocol: as §1, §2

The target of the next data set is T5, ZM6.22v2(J4) (artificial).
T5 chain: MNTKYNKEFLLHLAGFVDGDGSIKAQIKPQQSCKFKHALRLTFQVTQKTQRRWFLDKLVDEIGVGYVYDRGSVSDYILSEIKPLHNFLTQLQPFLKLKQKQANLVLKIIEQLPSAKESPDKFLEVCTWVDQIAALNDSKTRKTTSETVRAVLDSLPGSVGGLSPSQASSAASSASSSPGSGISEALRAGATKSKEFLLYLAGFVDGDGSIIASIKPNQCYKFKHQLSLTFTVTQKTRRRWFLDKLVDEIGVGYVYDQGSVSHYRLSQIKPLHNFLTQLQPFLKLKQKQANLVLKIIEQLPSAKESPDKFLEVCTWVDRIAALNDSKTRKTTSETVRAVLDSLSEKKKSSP
Nature of the data set: cell_activity; yeast 37 C; 30 C: 0.5. The protocol: as §1, §2

B1: MHP14 recognition site (dsDNA)
DNA 1: CAAACAGATTCACGTCAGATTT
DNA 2: AAATCTGACGTGAATCTGTTTG
B1: the activity with MHP14(14) is 4 score 0-4.

B2: ZM6.22v2 recognition site (dsDNA)
DNA 1: ATTGCTCTCTCACATACTTTTA
DNA 2: TAAAAGTATGTGAGAGAGCAAT
For B2, the activity in the data set with ZM6.22v2(J7) was 3 score 0-4; with ZM6.22v2(I8), 2.5 score 0-4; with ZM6.22v2(J5), 4 score 0-4; with ZM6.22v2(J4), 3.5 score 0-4.
